Results published in the MegaScale stability set (Tsuboyama et al. 2023).

B1: 5KPH (parent)
chain: EEKRQVKQVAKEKLLEQSPNSKVQVRRVQKQGNTIRVELELRTNGKKENYTVEVERQGNTWTVKRITRT
B2: EEHEE_rd3_1049 (parent)
chain: TTVKLGDIKVTFDNPEKAKKYAQKLAKIYQLTVHVHGDTIHVK

Variants of: B1
Assay: folding stability dG (cDNA display proteolysis); higher = more stable
Conditions: PBS, room temperature

Folding stability dG [kcal/mol] of substitutions, site by site:
G58: Q 3.5, R 2.97, S 3.36, T 2.84, V 3.02, W 3, Y 3.15
N59: A 3.69, C 3.22, D 4.01, E 3.92, F 3.54, G 4, H 3.62, I 3.54, K 3.73, L 3.68, M 3.92, P 3.84, Q 3.77, R 3.33, S 3.62, T 3.77, V 3.42, W 3.5, Y 3.82
T60: A 3.83, C 3.33, D 3.77, E 4.16, F 3.96, G 4.12, H 4.02, I 4.11, K 3.99, L 3.63, M 4, N 4.07, P 1.45, Q 4.23, R 3.97, S 4.13, V 4.01, W 4.16, Y 3.79
W61: A 2.23, C 2.68, D 1.07, E 0.848, F 3.74, G 1.39, H 2.59, I 3.14, K 0.975, L 3.64, M 3.21, N 1.83, P 1.94, Q 1.88, R 1.41, S 2, T 2.21, V 2.9, Y 4.03
T62: A 4.05, C 3.48, D 3.13, E 3.82, F 4.24, G 3.48, H 3.93, I 4.26, K 3.96, L 4.03, M 3.97, N 3.62, P 1.79, Q 3.92, R 3.9, S 3.75, V 4.27, W 4.24, Y 4.57
V63: A 3.02, C 2.96, D 0.956, E 1.26, F 2.78, G 1.35, H 1.18, I 3.47, K 0.466, L 2.88, M 2.06, N 0.507, P 2.8, Q 1.16, R 0.762, S 1.81, T 2.51, W 2.07, Y 2.01
K64: A 3.83, C 3.62, D 2.18, E 2.86, F 3.7, G 3.25, H 3.25, I 4.47, L 4.27, M 4.28, N 3.48, P 2.28, Q 3.56, R 3.94, S 3.94, T 4.29, V 4.3, W 3.08, Y 3.5
R65: A 4.27, C 3.44, D 3.59, E 3.61, F 3.53, G 3.6, H 3.58, I 3.43, K 4.01, L 3.67, M 3.84, N 3.73, P 1.4, Q 3.84, S 4.29, T 4.05, V 3.54, W 3.63, Y 3.7
I66: A 2.2, C 2.88, D 0.142, E 1.1, F 3.04, G 0.993, H 1.67, K 1.54, L 3.25, M 3.38, N 1.2, P 1.72, Q 1.95, R 1.28, S 2.1, V 3.94, W 3.15, Y 2.85
T67: A 3.46, C 3.68, D 3.3, E 3.64, F 4.23, G 3.01, H 3.62, I 4.09, K 3.55, L 4.01, M 3.98, N 3.32, P 1.34, Q 3.54, R 3.73, S 3.68, V 3.96, W 4.45, Y 4.38
R68: A 3.4, C 3.34, D 2.65, E 3.13, F 3.53, G 2.87, H 3.59, I 3.67, K 3.99, L 4.21, M 3.95, N 3.89, P 3.54, Q 3.73, S 3.21, T 3, V 3.46, W 3.07, Y 3.32
T69: A 3.68, C 3.56, D 3.73, E 3.82, F 3.52, G 3.7, H 4.21, I 3.99, K 3.73, L 3.98, M 4.13, N 3.87, P 2.87, Q 3.9, R 3.89, S 3.75, V 3.86, W 4.08, Y 4

Variants of: B2
Assay: as above
Conditions: PBS, room temperature

Folding stability dG [kcal/mol] of substitutions, site by site:
T1: A 1.43, C 3.02, D 0.651, E 0.641, F 2.42, G 0.959, H 1.56, I 2.27, K 1.19, L 1.76, M 2.14, N 1.1, P 1.02, Q 1.06, R 1.28, S 1.23, V 2.14, W 2.77, Y 2.52
T2: A 1.22, C 2.33, D 1.01, E 1.06, F 1.67, G 0.901, H 1.82, I 2.23, K 1.26, L 1.51, M 1.65, N 1.17, P 0.739, Q 1.28, R 1.03, S 1.4, V 2.12, W 1.6, Y 1.72
V3: A 0.626, C 2.3, D 0.577, E 0.57, F 0.742, G 0.742, H 0.671, I 1.34, K 0.686, L 1.09, M 0.732, N 0.593, P 0.746, Q 0.609, R 0.673, S 0.71, T 0.665, W 0.663, Y 0.622
K4: A 1.71, C 3.22, D 1.09, E 1.6, F 2.4, G 0.845, H 2.07, I 3.17, L 2.47, M 2.47, N 1.34, P 0.652, Q 2.35, R 2.18, S 1.61, T 1.85, V 2.91, W 2.76, Y 2.5
L5: A 0.939, C 3.38, D 0.531, E 0.422, F 2.71, G 0.536, H 1.59, I 2.79, K 0.76, M 2.24, N 0.735, P 0.495, Q 0.604, R 0.884, S 0.683, T 0.739, V 2.08, W 2.83, Y 2.12
G6: A 1.24, C 3.09, D 0.87, E 0.771, F 2.02, H 1.75, I 1.49, K 1.41, L 1.61, M 1.55, N 1.45, P 0.61, Q 1.12, R 1.76, S 1.05, T 0.948, V 1.2, W 2.23, Y 1.89
D7: A 2.6, C 3.56, E 1.97, F 2.83, G 2.39
